Assay results as given in patent publication US20220411483A1 (Chugai, published 2022).

T1: FcγRIIb extracellular domain, His tag (human, UniProt P31994 43-217)
T1 construct: extracellular domain; also called FcgRIIb
T1 sequence (looked up): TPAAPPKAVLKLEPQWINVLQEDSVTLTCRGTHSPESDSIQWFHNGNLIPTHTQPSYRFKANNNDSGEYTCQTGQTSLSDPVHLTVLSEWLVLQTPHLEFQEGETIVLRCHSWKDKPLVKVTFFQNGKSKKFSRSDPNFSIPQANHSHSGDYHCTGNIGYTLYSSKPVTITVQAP

T2: FcγRIIa R type extracellular domain, His tag (human, UniProt P12318 34-217)
T2 construct: extracellular domain; also called FcgRIIaR
T2 sequence (looked up): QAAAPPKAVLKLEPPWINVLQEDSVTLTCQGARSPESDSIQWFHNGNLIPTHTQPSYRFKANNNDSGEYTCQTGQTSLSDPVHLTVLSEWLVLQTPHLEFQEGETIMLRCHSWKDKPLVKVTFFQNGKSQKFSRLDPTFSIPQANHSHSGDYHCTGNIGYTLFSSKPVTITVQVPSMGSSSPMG

T3: FcgRIIb (human, UniProt P31994 43-217)
T3 construct: extracellular domain; also called FcγRIIb
T3 sequence (looked up): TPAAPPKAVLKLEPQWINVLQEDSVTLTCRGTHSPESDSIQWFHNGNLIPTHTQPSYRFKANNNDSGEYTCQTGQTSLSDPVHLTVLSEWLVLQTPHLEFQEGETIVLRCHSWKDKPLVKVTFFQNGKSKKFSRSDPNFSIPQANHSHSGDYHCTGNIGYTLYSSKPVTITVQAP

T4: FcgRIIaR (human, UniProt P12318 34-217)
T4 construct: extracellular domain; also called FcγRIIa R type; FcγRIIa (R type)
T4 sequence (looked up): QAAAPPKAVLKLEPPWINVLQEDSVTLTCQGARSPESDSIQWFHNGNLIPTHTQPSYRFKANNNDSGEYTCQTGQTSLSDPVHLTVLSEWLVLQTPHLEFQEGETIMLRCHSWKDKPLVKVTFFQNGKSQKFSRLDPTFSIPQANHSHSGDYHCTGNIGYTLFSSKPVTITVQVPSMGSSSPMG


Experiments:
[1] = target: T1, FcγRIIb extracellular domain, His tag; assay: SPR, bound amount per captured antibody
[2] = target: T2, FcγRIIa R type extracellular domain, …; assay: SPR, bound amount per captured antibody
FcgRIIb = target: T3, FcgRIIb; assay: SPR, amount bound per captured antibody
FcgRIIaR = target: T4, FcgRIIaR; assay: SPR, amount bound per captured antibody

Row | Binder | Relative FcgRIIb-binding Activity [1] | Relative FcgRIIaR-binding Activity [2] | Relative FcgRIIb-binding Activity (FcgRIIb) | Relative FcgRIIaR-binding Activity (FcgRIIaR)
1 | IL6R-BP267/IL6R-L (antibody, human IgG1, kappa, IL6R-BF648 with E233D/G237D/H268E/P271G) heavy: QVQLQESGPGLVKPSETLSLTCAVSGHSISHDHAWSWVRQPPGEGLEWIGFISYSGITNYNPSLQGRVTISRDNSKNTLYLQMNSLRAEDTAVYYCARSLARTTAMDYWGEGTLVTVSSASTKGPSVFPLAPSSKSTSGGTAALGCLVKDYFPEPVTVSWNSGALTSGVHTFPAVLQSSGLYSLSSVVTVPSSSLGTQTYICNVNHKPSNTKVDKKVEPKSCDKTHTCPPCPAPDLLGDDSVFLFPPKPKDTLMISRTPEVTCVVVDVSEEDGEVKFNWYVDGVEVHNAKTKPREEQYNSTYRVVSVLTVLHQDWLNGKEYKCKVSNKALPAPIEKTISKAKGQPREPQVYTLPPSRDELTKNQVSLTCLVKGFYPSDIAVEWESNGQPENNYKTTPPVLDSDGSFFLYSKLTVDKSRWQQGNVFSCSVMHEALHNHYTQESLSLSP light: not shown |  |  | 100 IL6R-BP267/IL6R-L=100 | 100 IL6R-BP267/IL6R-L=100
2 | IL6R-BP325/IL6R-L (antibody, human IgG1, kappa, name in EU numbering) heavy: QVQLQESGPGLVKPSETLSLTCAVSGHSISHDHAWSWVRQPPGEGLEWIGFISYSGITNYNPSLQGRVTISRDNSKNTLYLQMNSLRAEDTAVYYCARSLARTTAMDYWGEGTLVTVSSASTKGPSVFPLAPSSKSTSGGTAALGCLVKDYFPEPVTVSWNSGALTSGVHTFPAVLQSSGLYSLSSVVTVPSSSLGTQTYICNVNHKPSNTKVDKKVEPKSCDKTHTCPPCPAPDLLGDDSVFLFPPKPKDTLMISRTPEVTCVVVSVSEEDGEVKFNWYVDGVEVHNAKTKPREEQYNSTYRVVSVLTVLHQDWLNGKEYKCKVSNKALPAPIEKTISKAKGQPREPQVYTLPPSRDELTKNQVSLTCLVKGFYPSDIAVEWESNGQPENNYKTTPPVLDSDGSFFLYSKLTVDKSRWQQGNVFSCSVMHEALHNHYTQESLSLSP light: not shown |  |  | 21 IL6R-BP267/IL6R-L=100 | 11.6 IL6R-BP267/IL6R-L=100
3 | IL6R-BP321/IL6R-L (antibody, human IgG1, kappa, name in EU numbering) heavy: QVQLQESGPGLVKPSETLSLTCAVSGHSISHDHAWSWVRQPPGEGLEWIGFISYSGITNYNPSLQGRVTISRDNSKNTLYLQMNSLRAEDTAVYYCARSLARTTAMDYWGEGTLVTVSSASTKGPSVFPLAPSSKSTSGGTAALGCLVKDYFPEPVTVSWNSGALTSGVHTFPAVLQSSGLYSLSSVVTVPSSSLGTQTYICNVNHKPSNTKVDKKVEPKSCDKTHTCPPCPAPDLLGDDSVFLFPPKPKDTLMISRTPEVTCVVVNVSEEDGEVKFNWYVDGVEVHNAKTKPREEQYNSTYRVVSVLTVLHQDWLNGKEYKCKVSNKALPAPIEKTISKAKGQPREPQVYTLPPSRDELTKNQVSLTCLVKGFYPSDIAVEWESNGQPENNYKTTPPVLDSDGSFFLYSKLTVDKSRWQQGNVFSCSVMHEALHNHYTQESLSLSP light: not shown |  |  | 31.7 IL6R-BP267/IL6R-L=100 | 16.3 IL6R-BP267/IL6R-L=100

Next, values leading:

Row | Relative FcgRIIb-binding Activity [1] | Relative FcgRIIaR-binding Activity [2] | Relative FcgRIIb-binding Activity (FcgRIIb) | Relative FcgRIIaR-binding Activity (FcgRIIaR) | Binder
4 | 91.9 % of IL6R-F652/IL6R-L | 90.8 % of IL6R-F652/IL6R-L |  |  | IL6R-PD013/IL6R-L (antibody, human IgG1, kappa) heavy: QVQLQESGPGLVKPSETLSLTCAVSGHSISHDHAWSWVRQPPGEGLEWIGFISYSGITNYNPSLQGRVTISRDNSKNTLYLQMNSLRAEDTAVYYCARSLARTTAMDYWGEGTLVTVSSASTKGPSVFPLAPSSKSTSGGTAALGCLVKDYFPEPVTVSWNSGALTSGVHTFPAVLQSSGLYSLSSVVTVPSSSLGTQTYICNVNHKPSNTKVDKKVEPKSCDKTHTCPPCPAPELLGGDSVFLFPPKPKDTLYISRTPEVTCVVVDVSHEDPEVKFNWYVDGVEVHNAKTKPREEQYNSTYRVVSVLTVLHQDWLNGKEYKCKVHNKALPAPIEKTISKAKGQPREPQVYTLPPSRDELTKNQVSLTCLVKGFYPSDIAVEWESNGQPENNYKTTPPVLDSDGSFFLYSKLTVDKSRWQQGNVFSCSVMHEALHYHYTQKSLSLSP light: not shown
5 | 66 % of IL6R-F652/IL6R-L | 65 % of IL6R-F652/IL6R-L |  |  | IL6R-PD089/IL6R-L (antibody, human IgG1, kappa) heavy: QVQLQESGPGLVKPSETLSLTCAVSGHSISHDHAWSWVRQPPGEGLEWIGFISYSGITNYNPSLQGRVTISRDNSKNTLYLQMNSLRAEDTAVYYCARSLARTTAMDYWGEGTLVTVSSASTKGPSVFPLAPSSKSTSGGTAALGCLVKDYFPEPVTVSWNSGALTSGVHTFPAVLQSSGLYSLSSVVTVPSSSLGTQTYICNVNHKPSNTKVDKKVEPKSCDKTHTCPPCPAPELLGQDSVFLFPPKPKDTLYISRTPEVTCVVVDVSHEDPEVKFNWYVDGVEVHNAKTKPREEQYNSTYRVVSVLTVLHQDWLNGKEYKCKVSNKALPAPIEKTISKAKGQPREPQVYTLPPSRDELTKNQVSLTCLVKGFYPSDIAVEWESNGQPENNYKTTPPVLDSDGSFFLYSKLTVDKSRWQQGNVFSCSVMHEALHYHYTQKSLSLSP light: not shown
6 | 95.4 % of IL6R-F652/IL6R-L | 89.9 % of IL6R-F652/IL6R-L |  |  | IL6R-PD047/IL6R-L (antibody, human IgG1, kappa) heavy: QVQLQESGPGLVKPSETLSLTCAVSGHSISHDHAWSWVRQPPGEGLEWIGFISYSGITNYNPSLQGRVTISRDNSKNTLYLQMNSLRAEDTAVYYCARSLARTTAMDYWGEGTLVTVSSASTKGPSVFPLAPSSKSTSGGTAALGCLVKDYFPEPVTVSWNSGALTSGVHTFPAVLQSSGLYSLSSVVTVPSSSLGTQTYICNVNHKPSNTKVDKKVEPKSCDKTHTCPPCPAPELFGGDSVFLFPPKPKDTLYISRTPEVTCVVVDVSHEDPEVKFNWYVDGVEVHNAKTKPREEQYNSTYRVVSVLTVLHQDWLNGKEYKCKVSNKALPAPIEKTISKAKGQPREPQVYTLPPSRDELTKNQVSLTCLVKGFYPSDIAVEWESNGQPENNYKTTPPVLDSDGSFFLYSKLTVDKSRWQQGNVFSCSVMHEALHYHYTQKSLSLSP light: not shown
